Laboratory results reported in US20090240036A1 (Eli Lilly, published 2009).

T1: Human IL-23 (heterodimer of p19 and p40 subunits) (human, UniProt P29460 23-328)
T1 construct: also called hIL-23; human IL-23 (R and D Systems)
T1 sequence 1: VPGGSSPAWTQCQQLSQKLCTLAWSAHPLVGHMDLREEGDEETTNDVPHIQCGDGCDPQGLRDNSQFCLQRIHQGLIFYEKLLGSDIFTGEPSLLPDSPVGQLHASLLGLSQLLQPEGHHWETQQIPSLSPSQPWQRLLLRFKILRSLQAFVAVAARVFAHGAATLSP
T1 sequence 2: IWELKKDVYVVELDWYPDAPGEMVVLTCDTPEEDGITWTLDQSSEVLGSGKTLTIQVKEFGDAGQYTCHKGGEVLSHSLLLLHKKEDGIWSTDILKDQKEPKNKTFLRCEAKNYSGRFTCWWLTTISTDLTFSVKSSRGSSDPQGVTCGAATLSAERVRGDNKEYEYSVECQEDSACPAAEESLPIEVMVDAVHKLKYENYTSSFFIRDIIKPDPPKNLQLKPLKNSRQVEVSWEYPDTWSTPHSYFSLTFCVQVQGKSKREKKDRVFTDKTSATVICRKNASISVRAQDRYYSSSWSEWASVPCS


Columns and labels:
[1] = target: Human IL-23 (heterodimer of p19 and p40 subunits) (human) (UniProt P29460); experiment: BIAcore SPR, antibody captured on protein A, human IL-23 flowed, HBS-EP pH 7.4, 25 C
[2] = target: Human IL-23 (heterodimer of p19 and p40 subunits) (human) (UniProt P29460); experiment: cell-based or functional assay
[3] = target: T1, Human IL-23 (heterodimer of p19 and p40 …); experiment: BIAcore SPR, antibody captured on protein A, human IL-23 flowed, HBS-EP pH 7.4, 25 C
Method: Affinities of MAb3A8 and antibodies of the present invention are determined using BIAcore measurements (Table 3). BIAcore™ is an automated biosensor system that measures molecular interactions. (Karlsson, et al. (1991) J. Immunol. Methods 145: 229-240). In these experiments antibody is captured to a surface at low density on a BIAcore™ chip. Ethyl-dimethylaminopropyl-carbodiimide (EDC) is used to couple reactive amino groups to protein A to a flow cell of a carboxy-methyl (CM5) BIAcore™ sensor chip. Protein A is diluted in sodium acetate buffer, pH 4.5, and immobilized on a flow cell of a CM5 chip using EDC to yield 1000 response units. Unreacted sites are blocked with ethanolamine. A flow rate of 60 μl/min is used. Multiple binding/elution cycles are performed by injection a 10 μl solution of 2 μg/mL of the antibodies of the present invention. followed by human IL-23 at decreasing concentrations for each cycle (e.g. 1500, 750, 375, 188, 94, 47, 23.5, 12, and 0 picomolar). Elution is performed with glycine-HCl, pH 1.5. BIAevaluation™ is used to analyze the kinetic data.

[4] = target: T1, Human IL-23 (heterodimer of p19 and p40 …); experiment: cell-based or functional assay

Row | Molecule | Kd [1] [nM] | koff [1] [s⁻¹] | kon [1] [M⁻¹ s⁻¹] | IC50 Measured in the Murine Splenocyte Assay [2] [nM] | Kd [3] [nM] | koff [3] [s⁻¹] | kon [3] [M⁻¹ s⁻¹] | IC50 Measured in the Murine Splenocyte Assay [4] [nM]
1 | MAB1290, anti-human IL-23 monoclonal antibody, murine (R&D Systems) | 21.4 | 0.000768 | 36800 | 2.8 |  |  |  | 
2 | MAbQF20 (antibody, human IgG1, kappa, V domains shown, Humanized antibody derived from MAb3A8) VH: QVQLVQSGAEVKKPGASVKVSCKVSGKTFWSYGINWVRQAPGKGLEWMGYIYIGTGYTEPNPKYKGRVTMTEDTSTDTAYMELSSLRSEDTAVYYCATIGGYYGNFADWGQGTTVTVSS VL: DVVMTQSPLSLPVTLGQPASISCRSSQSLLISGGKTYLNWFQQRPGQSPRRLIYLVSKLDQGVPDRFSGSGSGTDFTLKISRVEAEDVGVYYCWQGTYFPLTFGQGTKLEIKR |  |  |  |  | 0.074 | 0.000115 | 1.55e+06 | 0.002
3 | MAbQF37 (antibody, human IgG1, kappa, V domains shown, Humanized antibody derived from MAb3A8) VH: QVQLVQSGAEVKKPGASVKVSCKVSGKTFWSYGINWVRQAPGKGLEWMGYIYIGTGYTEPNPKYKGRVTMTEDTSTDTAYMELSSLRSEDTAVYYCATIGGYYGNFDQWGQGTTVTVSS VL: DVVMTQSPLSLPVTLGQPASISCRSSQSLLISGGKTYLNWFQQRPGQSPRRLIYLVSKLDQGVPDRFSGSGSGTDFTLKISRVEAEDVGVYYCWQGTYFPLTFGQGTKLEIKR |  |  |  |  | 0.098 | 0.000153 | 1.55e+06 | 0.002
